The DeepSol protein solubility set

experiment: soluble on expression in E. coli; label from the status in PepcDB or PDB records

**Q.** With “MGSDKIHHHHHHMALTQITQTVSPQPTPPELRKYDYDLVIVGGGIVGLTLASALKDSGLNILLIEAKVSSAAVAKGQAYAVHLLSALIYQGIGIWDKILPQIAKYRQVRLSDADYPGVVEFETTDLGTPELGYVAEHQALLEPLQEFVQNCPNVTYLCPAEVVSTNYQQNEVVIAVKIADQLNTIRSKLLVAADGSRSPIRQAAGIKTHGWKYWQSCIVAFVKPEKPHNDTAYERFWPSGPFAILPLPGNRCRIVWTAPHDEAKALCALNDEEFLQELSQRFGKQMGKLELLGDRFVFQVQLMQSDRYVLPRLALVGDAAHNCHPVGGQGLNLGIRDVAALAQVIQKAHQAGEDIGNIRVLKRYESWRQKENLAILGFTDMLDRMFSNQFPPLVFVRRLGLWFLQSVPALKTFMLKLMIGLKGKTPELAKR” as the sequence, how does the “soluble on expression in E. coli” value read?
**A.** not soluble

**Q.** Which “soluble on expression in E. coli” value does the source give for “MGSDKIHHHHHHMAMVVLGAGGGLGRAITLELSKQYPDERIFALSRQPEVPETDSSDVTYCRIEDYDEKALGAWVSEFKNNGEQLSGVVSTIGMLHDEETFPEKKLTDITADNLNKLFSVNAVKPMLALKAFLPILDRKKTRFWVQLSAKVGSIEDNYLGGWYAYRSSKAGLNMLLKTASIELKRTHKNLIVAAIHPGTTDTRLSEPFQERISTDKLYSPELSAERIVAVVKNLKPENTGALWHWDGSRLPY” here?
**A.** not soluble

**Q.** Which “soluble on expression in E. coli” value does the source give for “MGSDKIHHHHHHMANELKVLEGMDVVALARKHSDQATVSGQVIPWQTSLSFDPSVDSDSTVTKDGNVATRSSASTDLEVEFLNNTAAIADVMYDSLFDGELLDFWILYRKRKNSAGKYYAWYMQVTVQEDSSDNDPDDHSTRDVTFSVNGTPKRGWTTLDDETQEQVDYVFLGVGKVTDTDKTGGGTVWDKDVDPGTNTADTAPAQSSSGTAPAQGGSSTGA” here?
**A.** not soluble

**Q.** With “MGSDKIHHHHHHMANPQSPHATLQLPQGMEITAEIKPGYDAILTREALELVAALHRTFEPRRQQLLQARAERTKRLDAGERPDFLAETKSVREGDWKIAPLPQDLQCRRVEITGPVERKMIINALNSGADSYMTDFEDSNAPSWDNQITGHINLKDAVRRTISLEQNGKSYALNDKVATLIVRPRGWHLDEKHVKVDGKRVSGSIFDFALFMVHNAKELLARGSGPYFYLPKMESHLEARLWNDIFVAAQEAVGVPRGTIRATVLIETILAAFEMDEILYELREHSSGLNAGRWDYIFSAIKKFKSDRDFCLADRSQITMTSPFMRAYALLLLKTCHRRNAPAIGGMSALIPIRNDPAANDKAMAGVRSDKARDAGDGYDGGWVAHPGLVAIAMEEFVKVLGDKPNQIGKQRDDVLVTATDLLDFRPETPITENGLRNNINVGIHYLGAWLTGNGCVPIHNLMEDAATAEISRSQVWQWIRSPKGKLDDGRKVTAELVRAMSAQELDKVKQAVGGDTKPYERAAQIFEEMSTSEQFTDFLTLPLYEEI” as the sequence, how does the “soluble on expression in E. coli” value read?
**A.** not soluble

**Q.** Which “soluble on expression in E. coli” value does the source give for “MGSDKIHHHHHHMANQVDIMKDEVAKMTLDFTEPQEILLEISPSLQKSAWQESQVYATPSSRWCAYTNQICLYAFLNWIKTESVSKASVWYSSPGIPAFWEFVNGTAILLEEKRVVLIPSEAIDDSELEVPQEWVDIPSWVADYYLAVQVTPDGEWVRIWGYITHQELKSLAHYDQVDRTYCIDARYLIKDLNAFWITYQFCIKEEMKAAIAPLPELSTAQAENMQQLLSDSSVTFVRLAVPFTTWAALLDNEQWRQCLYEQHQRCLRRAVPTQFSQVQVNLSRWLLQIYDASWQAIETFFEPNTSSLAFNFRSSSGLNAAAIKRAKLIDLGMQIEAQKVILLVALMPEVNQQVSIRVQLHPACNQPYLPANIKLVLLSEQGEILQEVQARVQDMYVQLKLFDGEVGERFSIQVTLDSCQITENFVI” here?
**A.** not soluble

**Q.** For “MGSDKIHHHHHHMAQDIRVFKSKRDIETAVIQLILEEDFSKLTIQQICQKALVSRSTFYSHYLDKYDVVEQLVAKTITQLETIFSQKYQSQVSPENLKDYLADIYQFYQENARLLKALLKTPLTGTGNFEEAFSKLCQTYINHLAATTKDNDHLPPQLLAEIFTANVVTLMKWIIEHGPSENVTHFADWLHDLFLQYLQE”, which “soluble on expression in E. coli” value is on record?
**A.** not soluble

**Q.** Which “soluble on expression in E. coli” value does the source give for “MGSDKIHHHHHHMAQGTLYIVSAPSGAGKSSLIQALLKTQPLYDTQVSVSHTTRQPRPGEVHGEHYFFVNHDEFKEMISRDAFLEHAEVFGNYYGTSREAIEQVLATGVDVFLDIDWQGAQQIRQKMPHARSIFILPPSKIELDRRLRGRGQDSEEVIAKRMAQAVAEMSHYAEYDYLIVNDDFDTALTDLKTIIRAERLRMSRQKQRHDALISKLLAD” here?
**A.** soluble

**Q.** With “MGSDKIHHHHHHMAQIISINDNQRLQLEPLEVPSRLLLGPGPSNAHPSVLQAMNVSPVGHLDPAFLALMDEIQSLLRYVWQTENPLTIAVSGTGTAAMEATIANAVEPGDVVLIGVAGYFGNRLVDMAGRYGADVRTISKPWGEVFSLEELRTALETHRPAILALVHAETSTGARQPLEGVGELCREFGTLLLVDTVTSLGGVPIFLDAWGVDLAYSCSQKGLGCSPGASPFTMSSRAIEKLQRRRTKVANWYLDMNLLGKYWGSERVYHHTAPINLYYALREALRLIAQEGLANCWQRHQKNVEYLWERLEDIGLSLHVEKEYRLPTLTTVCIPDGVDGKAVARRLLNEHNIEVGGGLGELAGKVWRVGLMGFNSRKESVDQLIPALEQVLR” as the sequence, how does the “soluble on expression in E. coli” value read?
**A.** soluble

**Q.** With “MGSDKIHHHHHHMAQIIVVTSGKGGVGKTTSSAAIATGLALKGKKTVVIDFDIGLRNLDLIMGCERRVVYDFVNVINGEANLNQALIKDKRCDKLFILPASQTRDKDALTKEGVGRVLENLAKDFDYIVCDSPAGIEQGAMMALYFADIAIVTTNPEVSSVRDSDRILGMLQSRSRRAELSLEPIKEYLLLTRYSPARVKTGEMLSVEDVKEILAIELLGVIPESQSVLKASNSGVPVIIDQESDAGLAYGDTVARLLGDDVPVRFITEEKKGFLKRIFGS” as the sequence, how does the “soluble on expression in E. coli” value read?
**A.** not soluble

**Q.** With “MGSDKIHHHHHHMARLRVYELARKLNMSPKELLQELEELGVNVKSHMSYVDEEMANIIIDLLEEDNRKAKQPSKPKKEKGEEEVEKEVVEKKKKKKITLKPDELKLDIIAEKIGVPQNKIIQDMFVKRGIALRPGQILKLEEVEQILKEYKIEIEIEEEQQTSVEEVDEFELLEKRYQELYEKEKDKLVPRPPVVTVMGHVDHGKTTLLDRIRSTRVAEREEGGITQSIGAYQVEVNGKKITFIDTPGHELFTEMRARGAQATDIVVLVVAADDGVMPQTIEAYNHAKAANVPIIVAINKIDKPNANVEKTKQELVEKLGLIPEEWGGDTIVVPISARTGQGVDELLEMILLVAEMNEIKCYPEGPARAVIIESKLDKKMGPVASAIVKDGVLKVGDAVVASNTYGRVRNLFDDNMRPIREAYPSQPVMILGFEDVPDVHSNVYVVESAEKAKEIVEKRLQRLEAQKQSRKHINLEELMKMMQEKEKKVLNLILKADTYGSVAALKNAINKLQSKEIELNIVHAGVGEISTSDVMLAAAVDGVILGFRVKVNNQARRLAEQEGVDVRTYSIIYKLVEDLKLALEGMLEPEEVEEVIGHGEIRKVFKISKVGKVAGVQMLDGKADRNGFVRIYRNGQLVFGGKIESLKHYKEDVSVVEAPQECGIKFAGFDDIHEGDELEFYVIRKVKRKPTFVEEQADQEQK” as the sequence, how does the “soluble on expression in E. coli” value read?
**A.** not soluble

**Q.** Which “soluble on expression in E. coli” value does the source give for “MGSDKIHHHHHHMASFVDKLHPLVLNIGLAIHNADWNWKNVNSPFTRLYYVTEGTAQVLISGKTQILKANHMYFIPAFTKHSYICNSYFSHYYLHIYEEHQSDSNLLDNWDFPIEIPAVEIDLALFQRLCTINPHMTLQKSDPTSYDNNYTLMQNLLKNKQRTLSDKIESRGIVYQLLARFLKRAQVKMELKDNRIEEAIHYIRKHINETIDLRVLAENSCLSKDHFIRLFKKETGDTPLKYINRKKIEKAQLILITDDMSIKNVALNLAFEDYSYFNRLFKKITGITPQEYRTSYHS” here?
**A.** not soluble

**Q.** Which “soluble on expression in E. coli” value does the source give for “MGSDKIHHHHHHMASIRELHEQLVKKERSAVEITQETLDHIQELEPKLHSFLHITAQQALEQARAVDAKIAAGEEIGLLAGIPIGVKDNMCTKGIPTTCASRILENFVPPYESTVTQKLLDAGAVVVGKTNLDEFAMGSSTENSAYQVTANPWDLSRVPGGSSGGSAAAVAAEECVVALGSDTGGSIRQPASFCGVVGLKPTYGLVSRYGLVAYASSLDQIGPFGKSVEDTAILLKAIAGYDHQDSTSLKVEIPDYVASLKPDLKARSKLRIGIIKETFGEGLDSVVEQAVTKAIEQLQRLGAEVHVISCPNFRYGVPSYYIIAPSEASANLARYDGVKYGWRAPEGDNLLSMYKRTRATGFGAEVKRRIMIGTYALSAGYYDAYYLKAQKVRTLIKQDFENAFKNVDVLVSPTAPTTAFKAGEKTADPISMYLNDLMTIPVNLAGLPGLSVPCGFDEQGLPIGLQLIGKVLREDQLLQIAYAYEQSTSWHLSQPKIS” here?
**A.** not soluble

**Q.** Which “soluble on expression in E. coli” value does the source give for “MGSDKIHHHHHHMATLETLDLSAGFAADLVQATEADAVTGYRRFHLGAFAFQRDEYFVKISWPAKGSTRTHAIPADAFLRAMMRDVAWGFFYGWVNFDHVFGTRNHYGKVDVYAGTFNGILKEAGVDYTETFETPTIMATFKAMLHDWTNEGFDPFAAPEETGTAFGRKHGENGAAIERTRIATRRMPGLEGDSPLRDELPVNRAFRDVGQDEPEVHVKPGFEGELHAFNLFKYLSRSDVTWNPSVTSVCGRSLFCPTTEEFILPVFHGNDRVEWFLQLSDEIVWDIGDKNTGAPRARITMRAGDICAMPADIRHQGYSTKRSMLLVWENATPDLPQRYESGELAPYPIAF” here?
**A.** not soluble

**Q.** Which “soluble on expression in E. coli” value does the source give for “MGSDKIHHHHHHMATPADKLAESLAVLKTLRDQGRKALRSEDMGRTHRERLMRNGFIKEVMKGWYIPSRPDEPAGESTSWYASFWVFCASYLESRFGDEWCVSPEQSIHLHTGNWSVPKQLLIRSPKGGNKPTGLLHGTSILDVRLELPPASDTEIKEGMRIYNLPAALVGCSQTQFSAHPTEMRTALTMMQDASELLGRLLAGGHSKIAGWLAGACRSIGRKQIADDILGAMRAAGYTVNENNPFKDQAQIIFSPRETSPYVNRMRMNWASMREDVLHSFPAAPGLPADSAKYLKQVEAVYVNDAYNSLSIEGYKVSAALIEKVRSGNWNPDSNKDDQDHRNALAARGYWQAFQKVRESIGKVLSQENAGTVAESDHAQWYRELFGPSVTAGILKAADLAGYRNSPVYIRRSMHTPPGKEAVRELMPVLFELLQQENEAAVRVVLGHFMFVYIHPYIDGNGRIGRFLMNLMSASGGYSWIVIPLEQRNDYMAALESASVEGDIKPFSTLLANLVSTG” here?
**A.** not soluble

**Q.** With “MGSDKIHHHHHHMATVISMINLKGGVGKTTLTVAMAEFMAAEYGLKVLVVDLDPQTNATVALINELEWRKRNIRGQTLLNIFLDHLSKYQVFSLEEAIVHNVSNVNGGIEGLDLLPSSIDLIEVHDEFLQAIPSLPINPLHLLDDVLRAALSAYDIVLIDCPPDLGLICQNGLMISDYYIIPTIPDILSTYGIPQIINRIGRLQRENSISIQPLGLVISKYRQQSEIHKNQANLLKIHAPKAGYRQVFNTFIPEGNLAAMVMDYTLHFNSLREKYNYSKYYQIYKALTEEVLSCVQ” as the sequence, how does the “soluble on expression in E. coli” value read?
**A.** not soluble

**Q.** For “MGSDKIHHHHHHMAVKMIKVHGSGNDFYLLDQTQFQAPLSDADLKQLAINICKRDGAGLYDGADGVLVVDKSEHPQVLGRMRVINADGTEASMCGNGLRTVARYLGTQNSQEDFRVQTMYADLKVQAVADFAAHVPAYSVEISPVTFDAQTLGMHANNDATTIINEKIPALSADLKFSAVAVPNPHLIAFVDHDTLVGPELGRIGEWMNDGKNQIFPDGVNVSFVEVLGPNSIFVRTFERGVGFTNACGTAMSASSLMYVLLHQESTDFNQEIHVTNPGGMVKTVVHQGADEEYWMELIGNATFVRIVTLPLEDALQGDYSPVTATETGEQVAYEDFVANLAKA”, which “soluble on expression in E. coli” value is on record?
**A.** not soluble

**Q.** Which “soluble on expression in E. coli” value does the source give for “MGSDKIHHHHHHMAVSAKYDEFNHWWATEGDWVEEPNYRRNGMSGVQCVERNGKKLYVKRMTHHLFHSVRYPFGRPTIVREVAVIKELERAGVIVPKIVFGEAVKIEGEWRALLVTEDMAGFISIADWYAQHAVSPYSDEVRQAMLKAVALAFKKMHSINRQHGCCYVRHIYVKTEGNAEAGFLDLEKSRRRLRRDKAINHDFRQLEKYLEPIPKADWEQVKAYYYAM” here?
**A.** not soluble
